In US20230374526A1, “FORSKOLIN-INDUCIBLE PROMOTERS AND HYPOXIA-INDUCIBLE PROMOTERS” (ASKLEPIOS BIOPHARMACEUTICAL, INC., priority 2020, published 2023):

B1: FMP-02: synthetic forskolin-inducible promoter, SEQ ID NO: 41; 8×AP1(1) TFBS with MinTK minimal promoter (nucleic acid)
DNA: TGAGTCAGATGATGCGTAGCTAGTAGTTGAGTCAGATGATGCGTAGCTAGTAGTTGAGTCAGATGATGCGTAGCTAGTAGTTGAGTCAGATGATGCGTAGCTAGTAGTTGAGTCAGATGATGCGTAGCTAGTAGTTGAGTCAGATGATGCGTAGCTAGTAGTTGAGTCAGATGATGCGTAGCTAGTAGTTGAGTCAGTAGTCGTATGCTGATGCGCAGTTAGCGTAGCTGAGGTACCGTCGACGATATCGGATCCTTCGCATATTAAGGTGACGCGTGTGGCCTCGAACACCGAGCGACCCTGCAGCGACCCGCTTAA
modifications: Synp-FMP-02
notes: 8×AP1(1) TFBS with MinTK minimal promoter
B2: FLP-01: synthetic forskolin-inducible promoter, SEQ ID NO: 42; 8×AP1(1) TFBS with G6PC minimal promoter (nucleic acid)
DNA: TGAGTCAGATGATGCGTAGCTAGTAGTTGAGTCAGATGATGCGTAGCTAGTAGTTGAGTCAGATGATGCGTAGCTAGTAGTTGAGTCAGATGATGCGTAGCTAGTAGTTGAGTCAGATGATGCGTAGCTAGTAGTTGAGTCAGATGATGCGTAGCTAGTAGTTGAGTCAGATGATGCGTAGCTAGTAGTTGAGTCAGTAGTCGTATGCTGATGCGCAGTTAGCGTAGCTGAGGTACCGTCGACGATATCGGATCCGGGCATATAAAACAGGGGCAAGGCACAGACTCATAGCAGAGCAATCACCACCAAGCCTGGAATAACTGCAGCCACC
modifications: Synp-FLP-01
notes: 8×AP1(1) TFBS with G6PC minimal promoter

Key:
[1] = system: HEK-293 cells; assay: Optimum inducer concentration to induce expression; type: cell-based, human
[2] = cited from earlier work
[3] = system: CHO-GS-KSV1 cell line; assay: SEAP expression from forskolin-inducible promoters in stably transfected cell line, forskolin or NKH477 induction; type: cell-based, chinese hamster; conditions: for Promoter strength ranking: SEAP, stably transfected CHO-GS-KSV1
Procedure: The forskolin-inducible promoters were then tested in a stably transfected CHO-GS-KSV1 cell line.
Cell suspensions of 6×10^5 cells per mL were incubated on an orbital shaker set at 8% CO2, 20% O2, 37° C., 85% relative humidity and 140 rpm overnight. 2.86×10^7 cells were centrifuged at 200 g for 3 minutes. Media was then aspirated and cell pellet resuspended in 2 mL fresh CD-CHO media to obtain a concentration of 1.43×10^7 cells per mL. 700 μL of cell suspension was added to each of two electroporation cuvettes each containing […] of linearised DNA in 100 μL of sterile TE buffer (Thermofisher, 12090015). Each cuvette was electroporated, delivering a single pulse of 300V, 900 μF with resistance to infinity. Immediately after delivery of pulse electroplated cells were transferred to Erlenmeyer 125 mL flask containing 20 mL of CD-CHO media pre-warmed to 37° C. Electroporated cells from two cuvettes are combined into a single 125 mL flask to generate one pool of cells. Cells are cultured on an orbital shaker set at 8% CO2, 20% O2, 37° C., 85% relative humidity and 140 rpm. Cells are transferred to fresh CD-CHO media 24 hours after transfection and cell cultures monitored and given fresh CD-CHO media every 2-4 days. Usually after about 10-14 days cell numbers will be high enough to start passaging. […]
The promoter activity and inducibility of FMP-02, FORCSV-10, FOR-CMC-009, and FLP-01 were also tested in the stably transfected CHO-GS-KSV1 cell line. […] After this point, the SEAP activity in the medium was assessed as described below.
SEAP Reporter Gene Assay, chemiluminescent (Roche, CAT #11 779 842 001) was used to measure SEAP activity as per the manufacturer's protocol. […] The signal is then read at 477 nm and compared to a calibration curve. […]

[4] = system: HEK293-F cells; assay: Luciferase expression from forskolin-inducible promoters, transient transfection, forskolin induction; type: cell-based, human; conditions: transiently transfected HEK293-F, 20 μM forskolin
Procedure: Luciferase readouts were normalised to β-galactosidase to produce normalised relative luminometer units (RLUs). β-galactosidase containing pcDNA6 plasmid was used as internal control for transfection efficiency (Thermofisher, V22020). β-galactosidase activity was measured as per manufacturer's instructions (Mammalian pGalactosidase Assay Kit, 75707/75710, Thermo Scientific) using 25 μl of lysate. 25 μl of lysate was transferred into a microplate well and mixed with 25 μl of β-galactosidase Assay Reagent, equilibrated to room temperature. The mixture was incubated at 37° C. for 30 min and absorbance measured at 405 nm.
The tested promoters were synthesised directly upstream of the ATG of PM-RQ plasmid and the suspension cell lines were transiently transfected with the PM-RQ plasmid.
40 ml of cells were grown in a 250 ml vented Erlenmeyer flask (Sigma-Aldrich CLS431144) at 37° C., 20% O2, 8% CO2 with agitation at 100 rpm. Cells were seeded as described in the manufacturer's instructions (300,000 cells/ml). HEK293-F were obtained from Thermofisher, R79007.
One day before transfection, the cells were counted using a haemocytometer and split to 500,000 cells/ml. […]
24 hours after transfection, the promoters were induced by addition of 20 μM forskolin and luciferase activity was measured 0, 3, 5 and 24 hours after induction. Luciferase activity was measured as described below. […]

Molecule	Concentration determined to be optimum to induce expression [1]	Water solubility [2]	Potency as inducer of the promoters compared with forskolin ([3]; 7.2 μM NKH477 vs 20 μM forskolin)	Promoter strength ranking (fold induction) [4]	Promoter strength ranking [3]
C=C[C@@]1(C)CC(=O)[C@]2(O)[C@@]3(C)[C@@H](O)CCC(C)(C)[C@@H]3[C@H](OC(=O)CCN(C)C)[C@H](OC(C)=O)[C@@]2(C)O1.Cl [NKH 477]	about 8 μM	water-soluble	slightly more potent inducer		
B1				weakest	weakest
B2				strongest	strongest
